Consider 94 variants from the supplement of paper PMC10567573.

The labels stand for the following.
B1: IKZF1 (parent)
chain: HIKLHSGEKPFKCHLCNYACRRRD
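Further: lentivirally expressed fusions sorted by FACS into six bins by GFP to DsRed ratio, PSI derived from sequencing read proportions per bin multiplied by bin number.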

The variants in the data set derive from B1. Nature of the data set: protein stability index of a GFP-peptide fusion (GPS, HEK-293T) (PSI 1-6); higher = more stable. As to conditions: c terminus: a fixed tail appended.
As for HIKLHSGEMPFKCHLCNYACRRRD [K9M], the protein stability index is 2.1.
With HIKLHSGEHPFKCHLCNYACRRRD [K9H], the protein stability index stood at 3.3.
On to HIKLHSGEYPFKCHLCNYACRRRD [K9Y], for which the protein stability index is 1.58.
In the case of HIKLHSGEIPFKCHLCNYACRRRD [K9I], the protein stability index is 2.23.
For HIKLHSGECPFKCHLCNYACRRRD [K9C] the value was 2.79; for HIKLHSGERPFKCHLCNYACRRRD [K9R], 1.81; for HIKLHSGEDPFKCHLCNYACRRRD [K9D], 2.8.
The value for HIKLHSGEFPFKCHLCNYACRRRD [K9F] was 1.97.
For HIKLHSGEQPFKCHLCNYACRRRD [K9Q] the value was 1.88; for HIKLHSGEAPFKCHLCNYACRRRD [K9A], 2.11; for HIKLHSGEPPFKCHLCNYACRRRD [K9P], 1.9.
Consider HIKLHSGEVPFKCHLCNYACRRRD [K9V], for which the protein stability index is 1.43.
The value for HIKLHSGEGPFKCHLCNYACRRRD [K9G] was 2.12; that for HIKLHSGENPFKCHLCNYACRRRD [K9N] was 1.79.
For the variant HIKLHSGELPFKCHLCNYACRRRD [K9L], the protein stability index came to 1.86.
As to HIKLHSGEEPFKCHLCNYACRRRD [K9E], the protein stability index came out at 2.02.
For the variant HIKLHSGESPFKCHLCNYACRRRD [K9S], the protein stability index worked out at 2.17.
On to HIKLHSGEWPFKCHLCNYACRRRD [K9W], for which the protein stability index amounted to 1.26.
For HIKLHSGETPFKCHLCNYACRRRD [K9T] the value was 1.42; for HIKLHSGTKPFKCHLCNYACRRRD [E8T], 1.59; for HIKLHSGCKPFKCHLCNYACRRRD [E8C], 1.97.
On to HIKLHSGGKPFKCHLCNYACRRRD [E8G], for which the protein stability index turned out to be 2.85.
For HIKLHSGHKPFKCHLCNYACRRRD [E8H] the value was 1.93; for HIKLHSGWKPFKCHLCNYACRRRD [E8W], 2.28.
HIKLHSGRKPFKCHLCNYACRRRD [E8R]: the protein stability index stood at 1.33.
For the variant HIKLHSGLKPFKCHLCNYACRRRD [E8L], the protein stability index turned out to be 1.79.
For the variant HIKLHSGVKPFKCHLCNYACRRRD [E8V], the protein stability index worked out at 2.13.
HIKLHSGPKPFKCHLCNYACRRRD [E8P]: the protein stability index is 2.17.
The value for HIKLHSGIKPFKCHLCNYACRRRD [E8I] was 1.74; that for HIKLHSGMKPFKCHLCNYACRRRD [E8M] was 1.63; that for HIKLHSGNKPFKCHLCNYACRRRD [E8N] was 1.25.
For HIKLHSGFKPFKCHLCNYACRRRD [E8F] the value was 1.72.
The value for HIKLHSGYKPFKCHLCNYACRRRD [E8Y] was 2.06; that for HIKLHSGAKPFKCHLCNYACRRRD [E8A] was 1.92; that for HIKLHSGQKPFKCHLCNYACRRRD [E8Q] was 1.56.
Turning to HIKLHSGKKPFKCHLCNYACRRRD [E8K], the protein stability index worked out at 1.5.
For HIKLHSGDKPFKCHLCNYACRRRD [E8D] the value was 1.72.
Regarding HIKLHSGSKPFKCHLCNYACRRRD [E8S], the protein stability index was 2.22.
On to HIKLYSGEKPFKCHLCNYACRRRD [H5Y], for which the protein stability index was found to be 2.45.
On to HIKLASGEKPFKCHLCNYACRRRD [H5A], for which the protein stability index was 3.14.
For HIKLKSGEKPFKCHLCNYACRRRD [H5K] the value was 2.27; for HIKLESGEKPFKCHLCNYACRRRD [H5E], 2.37; for HIKLCSGEKPFKCHLCNYACRRRD [H5C], 2.77.
For HIKLNSGEKPFKCHLCNYACRRRD [H5N], the protein stability index worked out at 2.13.
For HIKLFSGEKPFKCHLCNYACRRRD [H5F] the value was 1.97; for HIKLGSGEKPFKCHLCNYACRRRD [H5G], 2.45; for HIKLMSGEKPFKCHLCNYACRRRD [H5M], 2.06.
As for HIKLQSGEKPFKCHLCNYACRRRD [H5Q], the protein stability index was 1.78.
On to HIKLDSGEKPFKCHLCNYACRRRD [H5D], for which the protein stability index is 2.12.
For HIKLTSGEKPFKCHLCNYACRRRD [H5T] the value was 1.48; for HIKLPSGEKPFKCHLCNYACRRRD [H5P], 1.94.
As for HIKLISGEKPFKCHLCNYACRRRD [H5I], the protein stability index came out at 2.57.
Consider HIKLSSGEKPFKCHLCNYACRRRD [H5S], for which the protein stability index came to 1.18.
With HIKLRSGEKPFKCHLCNYACRRRD [H5R], the protein stability index came to 1.55.
For HIKLVSGEKPFKCHLCNYACRRRD [H5V], the protein stability index is 1.78.
Turning to HIKLLSGEKPFKCHLCNYACRRRD [H5L], the protein stability index is 1.7.
As to HIKLWSGEKPFKCHLCNYACRRRD [H5W], the protein stability index is 1.8.
The value for HIKLHSIEKPFKCHLCNYACRRRD [G7I] was 1.68; that for HIKLHSYEKPFKCHLCNYACRRRD [G7Y] was 2.25; that for HIKLHSFEKPFKCHLCNYACRRRD [G7F] was 2.21.
The value for HIKLHSWEKPFKCHLCNYACRRRD [G7W] was 2; that for HIKLHSAEKPFKCHLCNYACRRRD [G7A] was 2.2.
As to HIKLHSNEKPFKCHLCNYACRRRD [G7N], the protein stability index was determined as 1.18.
The value for HIKLHSQEKPFKCHLCNYACRRRD [G7Q] was 2.16; that for HIKLHSVEKPFKCHLCNYACRRRD [G7V] was 3.09; that for HIKLHSPEKPFKCHLCNYACRRRD [G7P] was 2.19.
For HIKLHSSEKPFKCHLCNYACRRRD [G7S] the value was 1.63; for HIKLHSMEKPFKCHLCNYACRRRD [G7M], 1.78; for HIKLHSHEKPFKCHLCNYACRRRD [G7H], 1.97.
For HIKLHSREKPFKCHLCNYACRRRD [G7R] the value was 2.08; for HIKLHSCEKPFKCHLCNYACRRRD [G7C], 2.58; for HIKLHSDEKPFKCHLCNYACRRRD [G7D], 2.25.
HIKLHSKEKPFKCHLCNYACRRRD [G7K]: the protein stability index turned out to be 2.47.
For HIKLHSEEKPFKCHLCNYACRRRD [G7E] the value was 2.62; for HIKLHSLEKPFKCHLCNYACRRRD [G7L], 1.73; for HIKLHSTEKPFKCHLCNYACRRRD [G7T], 1.15.
Consider HYKLHSGEKPFKCHLCNYACRRRD [I2Y], for which the protein stability index was 1.93.
For HMKLHSGEKPFKCHLCNYACRRRD [I2M] the value was 2.6; for HRKLHSGEKPFKCHLCNYACRRRD [I2R], 1.96.
For HFKLHSGEKPFKCHLCNYACRRRD [I2F] the value was 2.27; for HKKLHSGEKPFKCHLCNYACRRRD [I2K], 1.86; for HWKLHSGEKPFKCHLCNYACRRRD [I2W], 2.22.
Regarding HCKLHSGEKPFKCHLCNYACRRRD [I2C], the protein stability index amounted to 2.44.
The value for HTKLHSGEKPFKCHLCNYACRRRD [I2T] was 2.02.
Consider HHKLHSGEKPFKCHLCNYACRRRD [I2H], for which the protein stability index is 2.3.
Consider HEKLHSGEKPFKCHLCNYACRRRD [I2E], for which the protein stability index turned out to be 1.78.
For HSKLHSGEKPFKCHLCNYACRRRD [I2S] the value was 1.76; for HLKLHSGEKPFKCHLCNYACRRRD [I2L], 2.
As for HNKLHSGEKPFKCHLCNYACRRRD [I2N], the protein stability index was determined as 2.14.
The value for HGKLHSGEKPFKCHLCNYACRRRD [I2G] was 2.29; that for HDKLHSGEKPFKCHLCNYACRRRD [I2D] was 2.5.
In the case of HPKLHSGEKPFKCHLCNYACRRRD [I2P], the protein stability index was 2.13.
With HVKLHSGEKPFKCHLCNYACRRRD [I2V], the protein stability index was 1.47.
The value for HQKLHSGEKPFKCHLCNYACRRRD [I2Q] was 2.32.
